Assay results published in US20040191240A1, “Composition and method for nerve regeneration” (priority 2003, published 2004).

T1: RhoA complexed with Rho GDI (Bos taurus, UniProt P19803)
T1 construct: GST (N, cleaved yes); made in house; host or cells: yeast (RhoA, from membranes); E. coli (Rho GDI, pGEX)
T1 sequence (P19803 1-204): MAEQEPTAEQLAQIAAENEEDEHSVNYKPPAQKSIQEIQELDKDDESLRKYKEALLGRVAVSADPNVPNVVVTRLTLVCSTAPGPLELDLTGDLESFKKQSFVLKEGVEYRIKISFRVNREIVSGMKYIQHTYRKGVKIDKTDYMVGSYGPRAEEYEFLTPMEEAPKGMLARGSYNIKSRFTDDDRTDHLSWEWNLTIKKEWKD


How the values were obtained:
[1] = target: T1, RhoA complexed with Rho GDI; assay: In vitro nucleotide exchange assay; assay type: biochemical; conditions: high Mg2+; 50 nM complex, 90 nM GST-Dbl
Description: Lipid-modified RhoA was purified from yeast membranes as described (Forget, M. A., Desrosiers, R. R., Gingras, D. & Beliveau, R., Biochem. J. 361, 243-54(2002)). [^3H]GDP- or GDP-RhoA complexed with Rho GDI was obtained by first incubating GDP-RhoA with or without [^3H]GDP, followed by incubation with Rho GDI for 30 min, as described previously (Takahashi, K. et al., J. Biol. Chem. 272, 23371-23375 (1997)). The sample, subjected to gel filtration, was equilibrated with 20 mM Tris-HCl (pH 7.5) containing 5 mM MgCl2, 1 mM dithiothreitol and 0.1% CHAPS. The GDP dissociation and GTP binding assays were carried out by the filter binding method as described previously (Hart, M. J., Eva, A., Evans, T., Aaronson, S. A. & Cerione, R. A., Nature 354, 311-314 (1991)). In the [^3H]GDP dissociation assay, 50 nM of the complex was incubated for 20 min with various concentrations of GST-fused proteins in a reaction mixture (50 μl) containing 30 mM Tris-HCl (pH 7.5), 5 mM or 0.5 μM MgCl2, 1 (for low Mg) or 10 (for high Mg) mM EDTA, 0.1 mM GTP, 1 mM dithiothreitol, 0.12% CHAPS and 0.2mg/ml bovine serum albumin. In the [^35S] GTPγS binding assay, the complex was incubated as described above except that 1 μM [^35S] GTPγS was used instead of 0.1 mM GTP. At the indicated time, an aliquot of the reaction sample was removed, and passed through nitrocellulose filters (IPVH 000, Millipore). […]

[2] = test system: male Wistar rats; assay: Spinal cord injury (dorsal half dissected, ninth thoracic vertebra), agent pumped to the injured site; assay type: in vivo, rat; conditions: species not stated
Description: 200 g male Wistar rats were used. After the ninth thoracic vertebrae laminectomy was performed, the dorsal half of the spinal cord was dissected. A continuous osmotic pump was used to continuously administer either TAT(PTD domain)-fused Pep5 (TAT-[…]) (SEQ ID NO. 2) or TAT(PTD domain)-fused control peptide (TAT-[…]) (SEQ ID NO. 15) to the injured site for 6 weeks ([…]). In this case, the tip of a tube connected to the pump was left in the medullary space. After spinal cord injury, the functional recovery was assessed using the BBB score. The animals were observed on day 7, 14, 21, 28, 35, and 42 after injury. These experiments were carried out using techniques described in Fournier A. E., Takizawa, B. T., Strittmatter, S. M., J. Neurosci. 2003, 23, 1416-1423.
200 g male Wistar rats were used. After the ninth thoracic vertebrae laminectomy was performed, the dorsal half of the spinal cord was dissected. A continuous osmotic pump was used to continuously administer either TAT-fused Pep5 or TAT (PTD domain)-fused control peptide to the injured site.

| Molecule | Dbl stimulated dissociation of GDP from GDP-RhoA complexed with Rho GDI [1] | nerve regeneration, similar experiments with modified amino acids (Example 2-8) [2] |
| --- | --- | --- |
| p75 ICD: GST-fused intracellular domain (ICD) of p75 (protein, left off: a dimerising Fc or GST) KRWNSCKQNKQGANSRPVNQTPPPEGEKLHSDSGISVDSQSLHDQQTHTQTASGQALKGDGNLYSSLPLTKREEVEKLLNGDTWRHLAGELGYQPEHIDSFTHEACPVRALLASWGAQDSATLDALLAALRRIQRADIVESLCSESTATSPV | showed the inhibitory effect to the same extent as p75 HD | – |
| p75 in which alanine was replaced with valine at amino acid 423: p75 positions 273-427 of SEQ ID NO. 4 with alanine replaced with valine at amino acid 423 (protein, Homo sapien) KRWNSCKQNKQGANSRPVNQTPPPEGEKLHSDSGISVDSQSLHDQQPHTQTASGQALKGDGGLYSSLPPAKREEVEKLLNGSAGDTWRHLAGELGYQPEHIDSFTHEACPVRALLASWATQDSATLDALLAALRRIQRADLVESLCSESTVTSPV | – | nerve regeneration was similarly observed |
